The test deals with T1, GST-Dvl2PDZ fusion protein (human, UniProt O14641 248-364).
T1 construct: range 248-364; Made with the pGEX E. coli expression system; also called GST-PDZ fusion protein; not shown: glutathione S-transferase (GST) encoded by plasmid pGEX
T1 sequence (looked up): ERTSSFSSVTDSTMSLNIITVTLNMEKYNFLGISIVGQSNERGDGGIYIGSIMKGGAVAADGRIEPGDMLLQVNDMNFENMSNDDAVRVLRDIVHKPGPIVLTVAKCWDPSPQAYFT
Nature of the test: phage display selection on GST-Dvl2PDZ. On the procedure: The libraries were cycled through rounds of binding selection with a GST-Dvl2PDZ fusion protein coated on 96-well Maxisorp immunoplates as the capture target. Phage were propagated in E. coli XL1-blue with M13-KO7 helper phage and 10 μM IPTG. After four rounds of binding selection, individual phage clones were analyzed in a high-throughput phage ELISA, and positive clones were subjected to DNA sequence analysis.
We used decapeptide libraries fused to the C-terminus or N-terminus of the phage coat protein. The library contained NNK degenerate codons that encoded all 20 natural amino acids. The possible occurrence of amber stop codons in the degenerate codon also provided for the display of shorter peptides for the C-terminal library. Each library was cycled through four rounds of binding selection with immobilized GST-Dvl2PDZ fusion protein as the capture target.

62 molecules from US20100136580A1 (Genentech, published 2010) can be followed below.

B1: SEQ ID NO 114 (peptide)
peptide: HITVDYGWIDGGG
In the case of B1, the binding result is on record as “binds”.

B2: SEQ ID NO 141 (peptide)
peptide: EVLWSDFPPM
Turning to B2, the binding result was “binds”.

B3: SEQ ID NO 104 (peptide)
peptide: YTKYYGWIDTGG
B3: the binding result was “binds”.

B4: SEQ ID NO 113 (peptide)
peptide: VKYYGYIDGGG
As to B4, the binding result is given as “binds”.

B5: SEQ ID NO 97 (peptide)
peptide: ITDYGWVDGPG
For the molecule B5, the binding result is “binds”.

B6: SEQ ID NO 127 (peptide)
peptide: SIVLWSDIPS
For the molecule B6, the binding result was “binds”.

B7: SEQ ID NO 88 (peptide)
peptide: GGRMALGWLDGGG
With B7, the binding result is “binds”.

B8: SEQ ID NO 90 (peptide)
peptide: TDYGWIDYPP
Consider B8, for which the binding result is “binds”.

B9: SEQ ID NO 94 (peptide)
peptide: VSLINYGWIDGGG
Consider B9, for which the binding result is “binds”.

B10: SEQ ID NO 138 (peptide)
peptide: EMITLWSDLP
Take B10: the binding result is listed as “binds”.

B11: SEQ ID NO 142 (peptide)
peptide: RRMLWSDIPG
Take B11: the binding result is given as “binds”.

B12: SEQ ID NO 115 (peptide)
peptide: LTMYGWIDGKG
For the molecule B12, the binding result is “binds”.

B13: SEQ ID NO 103 (peptide)
peptide: YTDYGWIDQSG
Take B13: the binding result is given as “binds”.

B14: SEQ ID NO 83 (peptide)
peptide: WVEYGWIDSGG
For the molecule B14, the binding result is “binds”.

B15: SEQ ID NO 105 (peptide)
peptide: WWVDYGFVDGGG
Consider B15, for which the binding result is recorded as “binds”.

B16: SEQ ID NO 91 (peptide)
peptide: TRFTNYGWLDGGG
Take B16: the binding result is recorded as “binds”.

B17: SEQ ID NO 81 (peptide)
peptide: QSHTCYGWIDGGG
As to B17, the binding result is “binds”.

B18: SEQ ID NO 85 (peptide)
peptide: TLLHFYGYIDGGG
On to B18, for which the binding result is listed as “binds”.

B19: SEQ ID NO 112 (peptide)
peptide: MVDYGWIDYWG
Turning to B19, the binding result is on record as “binds”.

B20: SEQ ID NO 96 (peptide)
peptide: SHWKYYGWIDGGG
Regarding B20, the binding result is “binds”.

B21: SEQ ID NO 110 (peptide)
peptide: AMFHEYGWIDGGG
For the molecule B21, the binding result was “binds”.

B22: SEQ ID NO 128 (peptide)
peptide: EVLWSDFPPM
For B22, the binding result is on record as “binds”.

B23: SEQ ID NO 117 (peptide)
peptide: SWETLWSDFP
Regarding B23, the binding result is reported as “binds”.

B24: SEQ ID NO 82 (peptide)
peptide: VKYYGYIDGGG
Consider B24, for which the binding result is “binds”.

B25: SEQ ID NO 107 (peptide)
peptide: VSLINYGWIDGGG
For the molecule B25, the binding result is on record as “binds”.

B26: SEQ ID NO 125 (peptide)
peptide: TNLLWSDIPP
For B26, the binding result is “binds”.

B27: SEQ ID NO 84 (peptide)
peptide: FTWRDYGWLDGGG
As to B27, the binding result is on record as “binds”.

B28: SEQ ID NO 143 (peptide)
peptide: GLVLLWTDIP
On to B28, for which the binding result is recorded as “binds”.

B29: SEQ ID NO 130 (peptide)
peptide: GLVLLWDDFP
In the case of B29, the binding result is on record as “binds”.

B30: SEQ ID NO 131 (peptide)
peptide: LQLLWSDIPG
On to B30, for which the binding result was “binds”.

B31: SEQ ID NO 119 (peptide)
peptide: EVLWSDFPPM
On to B31, for which the binding result is reported as “binds”.

B32: SEQ ID NO 122 (peptide)
peptide: EVLWADFPPM
For B32, the binding result was “binds”.

B33: SEQ ID NO 139 (peptide)
peptide: WVMLWSDLPA
Take B33: the binding result is listed as “binds”.

B34: SEQ ID NO 135 (peptide)
peptide: SIVLWSDIPS
For B34, the binding result is on record as “binds”.

B35: SEQ ID NO 124 (peptide)
peptide: SMVLWWDVPS
Take B35: the binding result is “binds”.

B36: SEQ ID NO 118 (peptide)
peptide: NEQLLWTDIP
For B36, the binding result is “binds”.

B37: SEQ ID NO 116 (peptide)
peptide: VNLVEYGWVDGGG
As for B37, the binding result is recorded as “binds”.

B38: SEQ ID NO 136 (peptide)
peptide: QLVELWSDIP
For B38, the binding result is recorded as “binds”.

B39: SEQ ID NO 108 (peptide)
peptide: IKLVQYGWIDGGG
Consider B39, for which the binding result is on record as “binds”.

B40: SEQ ID NO 111 (peptide)
peptide: IKLVQYGWIDGGG
With B40, the binding result was “binds”.

B41: SEQ ID NO 101 (peptide)
peptide: SHWKYYGWIDGGG
With B41, the binding result is reported as “binds”.

B42: SEQ ID NO 132 (peptide)
peptide: EMDLLWTDIP
Take B42: the binding result is listed as “binds”.

B43: SEQ ID NO 95 (peptide)
peptide: WISGWIDYPP
B43: the binding result is given as “binds”.

B44: SEQ ID NO 120 (peptide)
peptide: QQLLWSDIP
For B44, the binding result is given as “binds”.

B45: SEQ ID NO 93 (peptide)
peptide: SLQWYGWIDSGG
For B45, the binding result is given as “binds”.

B46: SEQ ID NO 129 (peptide)
peptide: EMITLWSDLP
On to B46, for which the binding result was “binds”.

B47: SEQ ID NO 109 (peptide)
peptide: GFLTHYGWLDGGG
As to B47, the binding result is listed as “binds”.

B48: SEQ ID NO 92 (peptide)
peptide: LKFYGWIDGGG
Regarding B48, the binding result is on record as “binds”.

B49: SEQ ID NO 100 (peptide)
peptide: AHTTFYGWIDGGG
Consider B49, for which the binding result is “binds”.

B50: SEQ ID NO 102 (peptide)
peptide: AWIVDYGWIDGGG
Take B50: the binding result was “binds”.

B51: SEQ ID NO 134 (peptide)
peptide: ELWIDGPHVM
Take B51: the binding result was “binds”.

B52: SEQ ID NO 140 (peptide)
peptide: SIVLWSDIPS
With B52, the binding result is “binds”.

B53: SEQ ID NO 89 (peptide)
peptide: AWIVDYGWIDGGG
For B53, the binding result is on record as “binds”.

B54: SEQ ID NO 121 (peptide)
peptide: SIVLWSDIPS
Take B54: the binding result is listed as “binds”.

B55: SEQ ID NO 123 (peptide)
peptide: SIVLWTDIPS
Take B55: the binding result was “binds”.

B56: SEQ ID NO 86 (peptide)
peptide: YTKYYGWIDTGG
Regarding B56, the binding result is given as “binds”.

B57: SEQ ID NO 87 (peptide)
peptide: TWMDYGWLDQGG
Take B57: the binding result is “binds”.

B58: SEQ ID NO 137 (peptide)
peptide: WVMLWSDLPA
As to B58, the binding result is given as “binds”.

B59: SEQ ID NO 99 (peptide)
peptide: SIIYYGWLDGGG
Take B59: the binding result is listed as “binds”.

B60: SEQ ID NO 106 (peptide)
peptide: LKFYGWIDGGG
On to B60, for which the binding result is on record as “binds”.

B61: SEQ ID NO 98 (peptide)
peptide: MWYVDYGWVDGGG
For the molecule B61, the binding result is recorded as “binds”.

B62: SEQ ID NO 133 (peptide)
peptide: WTNVLWTDIP
Turning to B62, the binding result was “binds”.
